In patent US20170363644:

Molecular target: Aβ42 oligomers, P05067

B1: factor XII (FXII) (protein)
chain: IPPWEAPKEHKYKAEEHTVVLTVTGEPCHFPFQYHRQLYHKCTHKGRPGPQPWCATTPNFDQDQRWGYCLEPKKVKDHCSKHSPCQKGGTCVNMPSGPHCLCPQHLTGNHCQKEKCFEPQLLRFFHKNEIWYRTEQAAVARCQCKGPDAHCQRLASQACRTNPCLHGGRCLEVEGHRLCHCPVGYTGAFCDVDTKASCYDGRGLSYRGLARTTLSGAPCQPWASEATYRNVTAEQARNWGLGGHAFCRNPDNDIRPWCFVLNRDRLSWEYCDLAQCQTPTQAAPPTPVSPRLHVPLMPAQPAPPKPQPTTRTPPQSQTPGALPAKREQPPSLTRNGPLSCGQRLRKSLSSMTRVVGGLVALRGAHPYIAALYWGHSFCAGSLIAPCWVLTAAHCLQDRPAPEDLTVVLGQERRNHSCEPCQTLAVRSYRLHEAFSPVSYQHDLALLRLQEDADGSCALLSPYVQPVCLPSGAARPSETTLCQVAGWGHQFEGAEEYASFLQEAQVPFLSLERCSAPDVHGSSILPGMLCAGFLEGGTDACQGDSGGPLVCEDQAAERRLTLQGIISWGSGCGDRNKPGVYTDVAYYLAWIREHTVS
B1 was tested, and the “FXII autoactivation, chromogenic substrate assay with purified FXII” value was “Aβ42 oligomers can directly induce FXII autoactivation” and the “FXII cleavage in human plasma (Western blot: FXII zymogen and FXIIa heavy chain)” value was “plasma incubated with Aβ42 had decreased FXII zymogen and increased FXIIa heavy chain compared to incubation with vehicle”.
